Where no end group is shown, it is not given here.
B1: Clone No. 10 (Table IX) ICENLKECGLF (peptide, not shown: small tags and cut ends)
chain: ICENLKECGLF
modifications: cysteine pairing not given here; also: fused to LacI carrier via linker, letters not given here
B2: Clone No. 27 (Table IX) MCESLKECGLF (peptide, not shown: small tags and cut ends)
chain: MCESLKECGLF
modifications: cysteine pairing not given here; also: fused to LacI carrier via linker, letters not given here
B3: L6 ICENLKDCGLF (peptide, not shown: small tags and cut ends)
chain: ICENLKDCGLF
modifications: cysteine pairing not given here; also: fused to lysate carrier and linker, not given here

molecular target: recombinant reconstituted β2 adrenergic receptor; assay: ELISA of clones panned from the Gs library, reconstituted β2 adrenergic receptor

Row | Binder | ELISA
1 | QRMPLRQYELL (peptide, not shown: small tags and cut ends, not fully specified) [AG9 QRMPLRQYELL] | 0.19
2 | QRIHRRPFKFF (peptide, not shown: small tags and cut ends, not fully specified) [BAR1 QRIHRRPFKFF] | 0.218
3 | NCMKFRSCGLF (peptide, not shown: small tags and cut ends, not fully specified; cysteine pairing not given here) [BAR20 NCMKFRSCGLF] | 0.079
4 | QGEHLRQLQLQ (peptide, not shown: small tags and cut ends, not fully specified) [AG2 QGEHLRQLQLQ] | 0.33
5 | QWMDLRQHELL (peptide, not shown: small tags and cut ends, not fully specified) [BAR3 QWMDLRQHELL] | 0.185
6 | RWLHWQYRGRG (peptide, not shown: small tags and cut ends, not fully specified) [AG20 RWLHWQYRGRG] | 0.431
7 | QGMQLRRFKLR (peptide, not shown: small tags and cut ends, not fully specified) [AG1 QGMQLRRFKLR] | 0.435
8 | PCIQLGQYESF (peptide, not shown: small tags and cut ends, not fully specified) [BAR40 PCIQLGQYESF] | 0.028
9 | QRVHLRQDELL (peptide, not shown: small tags and cut ends, not fully specified) [BAR2 QRVHLRQDELL] | 0.197
10 | QRMNLGPCGLL (peptide, not shown: small tags and cut ends, not fully specified) [AG18 QRMNLGPCGLL] | 0.155
11 | QRLRLRKYRLF (peptide, not shown: small tags and cut ends, not fully specified) [BAR31 QRLRLRKYRLF] | 0.026
12 | QRLHLRGYEFL (peptide, not shown: small tags and cut ends, not fully specified) [AG13 QRLHLRGYEFL] | 0.054
13 | QRLRLGPDELF (peptide, not shown: small tags and cut ends, not fully specified) [AG4 QRLRLGPDELF] | 0.291
14 | QRMPLRLFEFL (peptide, not shown: small tags and cut ends, not fully specified) [AG3 QRMPLRLFEFL] | 0.217
15 | DRMHLWRFGLL (peptide, not shown: small tags and cut ends, not fully specified) [AG11 DRMHLWRFGLL] | 0.192
16 | ERLHRRLFQLH (peptide, not shown: small tags and cut ends, not fully specified) [BAR8 ERLHRRLFQLH] | 0.047
17 | PRPRLLRFKIP (peptide, not shown: small tags and cut ends, also: fused to carrier via linker, not given here) [AG19 PRPRLLRFKIP] | 0.361

molecular target: T1, light-activated rhodopsin (bovine rod outer segment membranes) (bovine, UniProt P02699 1-348, retinylidene chromophore bound to Lys-296); assay: LacI display panning, light-activated ROS membranes
T1 construct: whole, on cells; native receptor in membrane fragments immobilised on wells, not intact cells; also called metarhodopsin II; MII
Protocol: For screening of the library by “panning,” rhodopsin receptors prepared according to Example 5 were immobilized directly on Immulon 4 (Dynatech) microtiter wells (0.1-1 μg of protein per well) in cold 35 mM HEPES, pH 7.5, containing 0.1 mM EDTA, 50 mM KCl and 1 mM dithiothreitol (HEK/DTT). After shaking for one hour at 4° C., unbound membrane fragments were washed away with HEK/DTT. The wells were blocked with 100 μl 2% BSA in HEKL (35 mM HEPES; 0.1 mM EDTA; 50 mM KCl; 0.2 M α-lactose; pH 7.5, with 1 mM DTT). For rounds 1 and 2, BSA was used for blocking; in later rounds 1% nonfat dry milk was used. For the first round of panning, about 24 wells of a 96-well plate were used. In subsequent rounds, 8 wells with receptor and 8 wells without receptor were prepared.
The Gt library was thawed (2 mL aliquot) and mixed with 6 mL lysis buffer on ice. Lysis buffer contains 4.25 mL HE (25 mM HEPES: 0.1 mM EDTA; pH 7.5); 1 mL 50% glycerol; 750 μL 10 mg/mL protease-free BSA in HE; 10 μL 0.5 M DTT; and 6.25 μL 0.2 M PMSF. Freshly prepared lysozyme solution (150 μL 10 mg/mL lysozyme in cold HE) was added and the tube was gently inverted several times and incubated on ice for no more than two minutes. The extent of lysis is evidenced by an increase in viscosity that can be observed by noting the slow migration of bubbles to the top of the tube after mixing. Lysis was terminated by mixing in 2 mL 20% lactose and 250 μL 2M KCl. The tube was centrifuged immediately at 13,000×g for 15 minutes at 4° C. and the supernatant transferred to a new tube. A small aliquot of 0.1% (the PRE sample) was saved in a separate, labeled tube. […] Immediately thereafter, the crude bacterial lysate from the peptide library (200 μL) was added to each well and allowed to shake gently for one hour at 4° C. For round 2, this same procedure was followed. In round 3, the amount of lysate used was reduced to 100 μL. In subsequent rounds, the lysate was diluted 1:10 in HEKL/BSA.

T1 sequence (P02699 whole entry, the tested form may be a part): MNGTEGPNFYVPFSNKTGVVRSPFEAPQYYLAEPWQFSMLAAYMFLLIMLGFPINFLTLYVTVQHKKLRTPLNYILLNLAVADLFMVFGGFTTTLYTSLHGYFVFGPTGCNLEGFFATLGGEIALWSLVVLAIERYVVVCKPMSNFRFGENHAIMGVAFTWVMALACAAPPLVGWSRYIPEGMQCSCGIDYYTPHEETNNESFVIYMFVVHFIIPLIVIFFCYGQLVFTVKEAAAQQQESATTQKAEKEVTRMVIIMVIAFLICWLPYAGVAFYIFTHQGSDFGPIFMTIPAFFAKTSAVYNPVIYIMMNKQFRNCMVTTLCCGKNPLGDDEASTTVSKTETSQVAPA

Row | Binder | binding result
18 | VLEDLKSCGLF (peptide, not shown: small tags and cut ends, also: fused to LacI carrier via linker, letters not given here) [Clone No. 23 (Table IX) VLEDLKSCGLF] | binds
19 | B1 | binds
20 | IFLNLKDCGLF (peptide, not shown: small tags and cut ends, also: fused to LacI carrier via linker, letters not given here) [Clone No. 14 (Table IX) IFLNLKDCGLF] | binds
21 | IQGVLKDCGLL (peptide, not shown: small tags and cut ends, also: fused to LacI carrier via linker, letters not given here) [Clone No. 9 (Table IX) IQGVLKDCGLL] | binds
22 | LLDNIKDCGLF (peptide, not shown: small tags and cut ends, also: fused to LacI carrier via linker, letters not given here) [Clone No. 3 (Table IX) LLDNIKDCGLF] | binds
23 | IRETLKDCGLL (peptide, not shown: small tags and cut ends, also: fused to LacI carrier via linker, letters not given here) [Clone No. 19 (Table IX) IRETLKDCGLL] | binds
24 | LRESLKQCGLF (peptide, not shown: small tags and cut ends, also: fused to LacI carrier via linker, letters not given here) [Clone No. 6 (Table IX) LRESLKQCGLF] | binds
25 | ILADVIDCGLF (peptide, not shown: small tags and cut ends, also: fused to LacI carrier via linker, letters not given here) [Clone No. 26 (Table IX) ILADVIDCGLF] | binds
26 | ILTKLTDCGLF (peptide, not shown: small tags and cut ends, also: fused to LacI carrier via linker, letters not given here) [Clone No. 4 (Table IX) ILTKLTDCGLF] | binds
27 | IHASLRDCGLF (peptide, not shown: small tags and cut ends, also: fused to LacI carrier via linker, letters not given here) [Clone No. 11 (Table IX) IHASLRDCGLF] | binds
28 | MRESLKDCGLF (peptide, not shown: small tags and cut ends, also: fused to LacI carrier via linker, letters not given here) [Clone No. 17 (Table IX) MRESLKDCGLF] | binds
29 | B2 | binds
30 | MLKNLKDCGMF (peptide, not shown: small tags and cut ends, also: fused to LacI carrier via linker, letters not given here) [Clone No. 24 (Table IX) MLKNLKDCGMF] | binds
31 | IRENLEDCGLF (peptide, not shown: small tags and cut ends, also: fused to LacI carrier via linker, letters not given here) [Clone No. 15/28 (Table IX) IRENLEDCGLF] | binds
32 | IIDNLKDCGLF (peptide, not shown: small tags and cut ends, also: fused to LacI carrier via linker, letters not given here) [Clone No. 16 (Table IX) IIDNLKDCGLF] | binds
33 | MLENLKDCGLF (peptide, not shown: small tags and cut ends, also: fused to LacI carrier via linker, letters not given here) [Clone No. 18 (Table IX) MLENLKDCGLF] | binds

molecular target: T2, rhodopsin (activation state not stated) (bovine, UniProt P02699 1-348); assay: ELISA of lysates, OD450 with receptor minus without receptor
T2 construct: whole, on cells; same protein as m1; also called EDTA-washed rhodopsin
Protocol: The methods of Example 7 repeated using rhodopsin screening with a Gt library. To identify the rank order of binding, the lysates were analyzed using ELISA methods in which the secondary antibody was conjugated to HRP. Following addition of the substrate, the microplate was read using a spectrophotometer. The binding is the OD₄₅₀ for wells with receptor—OD₄₅₀ for wells in which no receptor (control wells with empty lipid vesicles).

T2 sequence (P02699 whole entry): as the sequence (P02699 whole entry, the tested form may be a part) above

Row | Binder | ELISA
34 | MLDNLKACGLF (peptide, not shown: small tags and cut ends, also: fused to lysate carrier and linker, not given here) [L4 MLDNLKACGLF] | 0.908 OD450
35 | ILENLKDCGLF (peptide, not shown: small tags and cut ends, also: fused to fusion carrier of the lysate via linker, not given here) [L3 ILENLKDCGLF] | 0.839 OD450
36 | B3 | 0.342 OD450
37 | IRDNLKDCGLF (peptide, not shown: small tags and cut ends, also: fused to fusion carrier of the lysate via linker, not given here, second of two rows labelled L10) [L10 IRDNLKDCGLF] | 0.162 OD450
38 | IVEILEDCGLF (peptide, not shown: small tags and cut ends, also: fused to fusion carrier of the lysate via linker, not given here) [L33 IVEILEDCGLF] | 1.01 OD450
39 | MLDNLKDCGLF (peptide, not shown: small tags and cut ends, also: fused to lysate carrier and linker, not given here) [L7 MLDNLKDCGLF] | 0.525 OD450
